Patent US10801046B2, “Methods and materials for biosynthesizing multifunctional, multivariate molecules via carbon chain modification” (INVISTA NORTH AMERICA S.A.R.L., priority 2016, dated 2020)

Experiment: In vivo aminotransferase activity screening, 7-aminoheptanoate by LC-MS
Type: cell-based, Escherichia coli
Conditions: in vivo conversion of 7-oxoheptanoate to 7-aminoheptanoate, 120 aminotransferases screened
Protocol: A 165-member aminotransferase library from Twist on IPTG-inducible T7- pUC expression vectors was co-transformed into T7 Express lysY/Iq with a constitutive expression pJ23150-derived plasmid bearing the phosphopantetheinyl transferase sfp from Bacillus subtilis, CAR_Srot from Invista and BioC from Serratia marcescens (UniprotKB Accession No. P36571 (SEQ ID NO: 165)). The resulting strains were incubated in 0.5 ml of rich media (terrific broth or LB containing 8% glycerol) supplemented with 0.4 mM IPTG and received 1 g/L monomethyl heptanedioate, 1 g/L heptanedioate, or no organic acid addition, depending on the experiment. Following incubation overnight at 37° C. in a shaking incubator, cells were pelleted and the supernatants were analyzed using LC-MS for 7-aminoheptanoate or monomethyl 7-aminoheptanoate. A Vibrio fluvialis aminotransferase (UniProtKB Accession No. F2XBU9 (SEQ ID NO: 128)) was used as a positive control.

B1: SEQ ID NO: 173: Methylobacterium aquaticum aminotransferase (protein, listed as Methylobacterium aquaticum)
chain: MLSNLATRDVETLIHPYTNLAAFRQTGPLVLERGHGVWVYDTDGRPYLEGMAGLWCTALGYSNEELVEAAREQMSRLPFTHLFSGRSHDPAIELAETLKELAPIPVSKVFFTSSGSEANDTQVKLTWYLNNALGRPQKKKIIGRHKGYHGVTVASASLTGLTANHADWDLPLPGFLHAACPHHYRGAEAGETEEAYSARLATELEEMILREGPETVAAFIAEPVMGAGGAIVPPKGYFAAIEPVLARYDVRFIADEVICGFGRLGTWFGSEALGMKPHSLSFAKALTSAYMPLGGVTVDETLYQAMQDQSRKIGTFGHGTTYSGHPVASAVALKTIEIYRRDKIIEGAAEKAPHFQRRLSALEEHPLVGEAKGMGLIGGLEIVADKATKRQYDPKAGVAARCVAFAQEEGLIVRFLTGDRVAVCPPLVIRPDEIDTLFDRLGTALDRTQAWIREQGLTAA
**Q.** For B1, which “7-aminoheptanoate yield compared to the positive control (F2XBU9)” value is on record?
**A.** higher 7-aminoheptanoate yields

B2: SEQ ID NO: 176: Firmicutes bacterium CAG:24 aminotransferase (protein)
chain: MGELMQQYIDEAEQDLLHTYNRYQVVLDRGDGVSLYDIEGKRYLDFVAGIAVFALGYHNAEYNDALKAQIDKVIHTSNYYYNVPAVEAARHLKKVSRMDRVFFTNSGAEAIEGAIKAARKYAYLKDGTTDHEIIAMNHSFHGRTMGALSVTGNPHYREAFEPGIGNIRFADLNDFDSVLACVNDKTCAILLETVQGEGGIYPVQEDFLKKVRALCDEKDILLILDEIQCGMGRTGYWYAWQKYGVKPDIMTTAKALGCGVPVGAFLMTEKVGQHSLTAGDHGTTYGGNPLACAAVAKVLDLFEENNILEHVREVSAYLEEKLDSLAAKYDFITDRRGMGLMQGLVFDRPVAPVINAALENGLILINAGTNIIRFVPPLVITDADVDEMIEILDSCLKTFQEQNA
modifications: Firmicutes bacterium CAG:24
notes: Firmicutes bacterium CAG:24 aminotransferase
**Q.** With B2 as the molecule, how does the “7-aminoheptanoate yield compared to the positive control (F2XBU9)” value read?
**A.** higher 7-aminoheptanoate yields

B3: SEQ ID NO: 174: Candida tenuis aminotransferase (protein, listed as Candida tenuis)
chain: MNSSKSQICLATERQYSAKNYTPMPVVFKKAIGCKVWDVDDNEYLDFGGSYCATNQGHSHPKIVQALIDQAQICALPSRAFTHNLYGDYIKFVCQYFDFEKALPLNGGSEAIEFAIKLARAWGYTKKGISQNEAIVLFAANNYHGRTLGSTSASTTPGARKNYGPFLPKVGPYYGSEGKFIRYNHIEDIEEAFKTDGPNIAAIVLESLQGEAGIYVPKDGYLQQVKRLCEEYNILYIADEVQMGAGRTGTLLSCEQDGIKPDVLVVAKSIGGGVYPTSLVLSSGEIMDCIEPNSHGATFSGSPLSCATSKVALEVLIEDNMIDNAKHLGKIMLDGLNSIREKSSIITDVRGRGLMAGFDIDESQLNGKKVWHVCMLLRSKGIICKMVHAKTIRWAPALVITEEELRFGLRMLEQTINEITALEIADIPDAVTFDYLRY
modifications: Candida tenuis (strain ATCC 10573 / BCRC 21748 / CBS 615 / JCM 9827 / NBRC 10315 / NRRL Y-1498 / VKM Y-70)
notes: Candida tenuis aminotransferase
**Q.** With B3 as the molecule, how does the “7-aminoheptanoate yield compared to the positive control (F2XBU9)” value read?
**A.** higher 7-aminoheptanoate yields

B4: SEQ ID NO: 175: Tepidicaulis marinus aminotransferase (protein, listed as Tepidicaulis marinus)
chain: MSQTAQISNQTRRWQEMDARHHVHPFSDQAALAKKGARVITHAEGVYLYDSEGHKIIDGMAGLWCVNVGYGRSELAEAGYKALKELPYYNTFFQTTNPYTAELGERLAEVTPDGLDRFFFANSGSEANDSMVKIIRYYWSLQGKPEKKVFISRKQAYHGVTMTAASLSGISAMHPQAGLPLPNHAHIDFPYWYGMGGDMDPNEFGVHIAMKLEEKILEIGAENVAAFVAEPVQGAGGLIIPPDSYWPVIQEICHKYDILLHADEVICGFGRTGNWFGSHTYGIVPDTMAMAKGMTSGYQPLSAVALGPRVGDALHNSGEEWSHGFTYSGHPVASAVALANLDVLQKDKLVEKAGGETGEHFLKHLHALADHPIVGETRGVGLLGAIELVKDKKTRERFEGDTGGLCRDHCFENDLIMRAIGNTMVLSPPLSITKAELDELFTLARKALDATAKDLGAM
**Q.** With B4 as the molecule, how does the “7-aminoheptanoate yield compared to the positive control (F2XBU9)” value read?
**A.** higher 7-aminoheptanoate yields
